Results as given in US12544428B2, “Controlled-release CNP agonists with reduced side-effects” (ASCENDIS PHARMA GROWTH DISORDERS A/S, priority 2016, dated 2026).
Like-named read-outs stand apart in the source and are kept apart here.

Experiments:
[1] = 0.146 mg CNP-38 eq/kg
Procedure: (§1) Plasma total CNP-38 concentrations (conjugated and released CNP-38) were determined by quantification of the N-terminal signature peptide (sequence: […]) and C-terminal signature peptide (sequence: […]) after tryptic digestion.
(§2) LC-MS analysis was carried out by using an Agilent 1290 UPLC coupled to an Agilent 6550 iFunnel Q-TOF mass spectrometer via an ESI probe. Chromatography was performed on a Waters Acquity BEH300 C18 analytical column (50×2.1 mm I.D., 1.7 μm particle size) with pre-filter at a flow rate of 0.25 mL/min (T=25° C.). Water (UPLC grade) containing 0.2% formic acid (v/v) was used as mobile phase A and acetonitrile (UPLC grade) with 0.2% formic acid as mobile phase B. The gradient system comprised a short isocratic step at the initial parameters of 0.1% B for 3.0 min followed by a linear increase from 0.1% B to 16% B in 17 min. Mass analysis was performed in the single ion monitoring (SIM) mode, monitoring the ions m/z 482.75 [M+2H]^2+ (N-terminal) and m/z 824.36 [M+H]^1+ (C-terminal). As internal standard deuterated CNP-38 peptide was used.
(§3) Calibration standards of CNP-38 conjugate in blank plasma were prepared as follows: The thawed Li-heparin cynomolgous plasma was first homogenized, then centrifuged for 5 minutes. […] These solutions were used for the generation of a calibration curve.
(§4) For sample preparation, protein precipitation was carried out by addition of 300 μL of pre-cooled (0° C.) methanol to 100 μL of the plasma sample. 200 μL of the supernatant were transferred into a new well-plate and evaporated to dryness (under a gentle nitrogen stream at 35° C.). 100 μL of reconstitution solvent (Thermo digestion buffer, order number 60109-101, Thermo Fisher Scientific GmbH, Dreieich, Germany) were used to dissolve the residue. 20 μg of trypsin (order number V5111, Promega GmbH, Mannheim, Germany) were dissolved in 20 μL of 10 mM acetic acid. 2 μL of the trypsin solution were added to each cavity.
(§5) After 4 hours incubation at 37° C. (water bath), 5 μL of a 0.5 M TCEP solution were added to each cavity and incubated again for 5 min at 96° C. After the samples had cooled to room temperature, 3 μL acetonitrile were added. The eluates were transferred into vials. 10 μL were injected into the UPLC-MS system.
Blood samples were collected up to 168 h post dose, and plasma was generated. Plasma total CNP-38 concentrations were determined by quantification of the N-terminal signature peptide (sequence: […]) and C-terminal signature peptide (sequence: […]) after tryptic digestion as described in Materials and Methods.

[2] = 0.146 mg CNP-38 eq/kg; remark: listed apart in the source
Procedure: as §1, §2, §3, §4, §5
Male cynomolgus monkeys (2-4 years old, 3-5 kg) received either a single subcutaneous administration (n=3 animals) of compound 10f or a single subcutaneous (n=3 animals) administration of 11i at a dose of 0.146 mg CNP-38 eq/kg. Blood samples were collected up to 168 h post dose, and plasma was generated. Plasma levels of total CNP-38 content were analyzed as described in example 24. In order to analyze the plasma content of free CNP-38, the blood samples were acidified after withdrawal by adding 20 vol % of 0.5 M sodium citrate buffer pH 4 to stop further CNP-38 release from the conjugate. Free CNP-38 levels in plasma can e.g. be determined by ELISA using a CNP antibody that binds to the ring region of CNP, as described in the literature (U.S. Pat. No. 8,377,884 B2), or by LC-MS/MS.

Substance	half life time of CNP-38 content ([1]; single intravenous injection, plasma total CNP-38)	CNP-38 tmax ([1]; single intravenous injection, plasma total CNP-38, earliest time point analyzed) [h]	dose site reactions ([1]; single iv or sc dose)	tolerability of dose administrations ([1]; single iv or sc dose)	CNP-38 concentration at 168 h ([1]; single subcutaneous injection)	CNP-38 tmax ([1]; single subcutaneous injection, plasma total CNP-38) [h]	bioavailability ([1]; subcutaneous vs intravenous)	dose site reactions ([2]; single sc)	tolerability of dose administrations ([2]; single sc)	Total CNP-38 plasma levels after 120 h ([2]; single sc, C-terminal peptide, below LOQ) [ng/mL]	total CNP-38 tmax ([2]; single subcutaneous administration) [h]
Permanent Lys26 CNP-38 PEG4×10 kDa Conjugate [Compound 12g]	approx. 24 h	0.25	No dose site reactions were observed	well tolerated	ca. 50 % of cmax	48	ca. 50%				
Reversible Lys26 CNP-38 PEG2×20 kDa Conjugate [Compound 10f]								No dose site reactions were observed	well tolerated	< 100	12
